The values below come from publication PMC4555872.

Test [1] has as its target BG505 SOSIP.664 gp140 trimer (cleaved) (HIV-1 (BG505)). Kind of test: negative stain electron microscopy.
The target in test [2] is BG505 WT.SEKS gp140 (uncleaved) (HIV-1 (BG505)). Kind of test: negative stain electron microscopy.
For test [3], the target named is CZA97.012 gp140 (uncleaved, foldon, His-tagged) (HIV-1 (subtype C, CZA97.012) | not stated). Kind of test: SEC. On the technique in general: Size exclusion chromatography separates by hydrodynamic size, large species first.

As to “BG505 SOSIP.664 gp140 trimer (cleaved) (complex)”, in test [1], the stoichiometry N (in general, a count of units in the complex or per binding partner) amounted to 3.
BG505 WT.SEKS gp140 (uncleaved) returned a stoichiometry N in test [2] of 3.
On to “CZA97.012 gp140 (uncleaved, foldon, His-tagged)”, for which the stoichiometry N in test [3] was 3.
